Laboratory results reported in patent US20060029603A1 (GlaxoSmithKline, published 2006).
Residue numbers refer to the chain shown, from its start. Like-named read-outs stand apart in the source and are kept apart here.

Experiments:
[1] = molecular target: T1, GST-human NOGO-A56 (human, UniProt P08515 1-218 = GST); test: SPR (Biacore) off-rate ranking, CHO-K1 transient supernatant over GST-human NOGO-A56 chip; single experiment
T1 construct: GST-tagged fusion expressed in E. coli BL21 and purified on glutathione-sepharose; coated on ELISA plates or amine-coupled to a CM5 chip; also called hNOGO; recombinant human NOGO
T1 sequence (P08515 1-218, tags or fused parts left off): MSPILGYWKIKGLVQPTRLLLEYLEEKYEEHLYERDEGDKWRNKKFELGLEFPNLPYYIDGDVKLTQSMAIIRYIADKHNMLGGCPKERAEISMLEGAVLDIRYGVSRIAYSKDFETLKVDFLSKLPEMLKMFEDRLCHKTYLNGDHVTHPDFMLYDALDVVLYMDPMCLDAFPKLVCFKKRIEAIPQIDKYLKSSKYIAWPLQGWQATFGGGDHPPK
Description: (§1) hNOGO (GST-human NOGO-A56) was immobilised to a CM5 chip by primary amine coupling using the Biacore Wizard program designed for targeted immobilisation levels. The CM5 sensor surface was activated by passing a solution of 50 mM N-hydroxy-succinimide (NHS) and 200 mM N-ethyl-N′-dimethylaminopropyl […] (EDC). Then hNOGO in sodium acetate buffer, pH5.0 or pH 4.5, was passed over the chip and immobilised. After immobilisation was complete any still activated esters were blocked by an injection of 1M ethanolamine hydrochloride, pH8.5.
The hNOGO chip was prepared as for kinetic analysis. Cell supernatants where taken directly from transient transfections of CHO-K1 cells. These were passed directly over the sensor surface and the interaction measured. A mock transfected cell supernatant was used for double referencing to remove any artefacts due to the tissue culture media. All runs were referenced against a blanked sensor surface (one that had been activated and blocked as described earlier but had no addition of ligand). Analysis of binding was carried out using the BIAevaluation kinetic analysis software version 4.1.

[2] = molecular target: T1, GST-human NOGO-A56; test: ELISA, coated GST-human NOGO-A56, transfection supernatant, anti-human kappa-HRP, OD 490 nm
Description: (§2) GST-human NOGO-A56 (SEQ ID: 76) at 1 μg/ml in PBS was coated onto Nunc Immunosorp plates (100 μl per well) at 4° C. overnight. Wells were rinsed once with TBS+0.05% Tween (TBST) then incubated with 2% BSA in TBST to block non-specific binding sites at room temperature for 1 hour. Antibodies were diluted in TBST+2% BSA to 10 μg/ml and 1/2 dilutions made from this. Antibodies were added to wells in duplicate and incubated at room temperature for 1 hour. Wells were washed three times with TBST then incubated with anti-human kappa peroxidase conjugate (1:2000) for 1 hour. The wells were washed three times with TBST and then incubated with 100 μl OPD peroxidase substrate (Sigma) per well for 10 minutes. The colour reaction was stopped by the addition of 25 μl concentrated H₂SO₄. Optical density at 490 nm was measured using a plate reader. Background values read from wells with no antibody were subtracted.

[3] = molecular target: T1, GST-human NOGO-A56; test: SPR (Biacore 3000), GST-human NOGO-A56 on CM5, antibody as analyte; single experiment
Description: as §1
(§3) The anti-NOGO mAbs were diluted down in HBS-EP (10 mM HEPES, pH 7.4, 150 mM NaCl, 3 mM EDTA, and 0.005% P-20 surfactant) and binding studies were carried out at range of defined antibody concentrations. All runs were referenced against a blanked sensor surface (one that had been activated and blocked as described earlier but had no addition of ligand). Analysis of binding was carried out using the BIAevaluation kinetic analysis software version 4.1. Biacore analysis of other antibodies of the invention essentially followed the same protocol as described herein.

[4] = molecular target: T1, GST-human NOGO-A56; test: as above; remark: listed apart in the source
Description: (§4) The binding kinetics of the anti-NOGO monoclonal antibody (mAb) to recombinantly expressed human NOGO-A (GST-human NOGO-A56) was analysed using the Biacore3000 biosensor. The hNOGO-A chip was prepared as follows:
as §1, §3

[5] = molecular target: T1, GST-human NOGO-A56; test: SPR (Biacore 3000), GST-human NOGO-A56 amine-coupled to CM5, antibody as analyte; mean (SD) of four experiments
Description: as §4, §1, §3

[6] = molecular target: T1, GST-human NOGO-A56; test: ELISA, coated GST-human NOGO-A56, transfection supernatant, anti-human kappa-HRP, OD 490 nm; remark: listed apart in the source
Description: as §2

B1: H17L13 (antibody, human IgG1, kappa)
heavy: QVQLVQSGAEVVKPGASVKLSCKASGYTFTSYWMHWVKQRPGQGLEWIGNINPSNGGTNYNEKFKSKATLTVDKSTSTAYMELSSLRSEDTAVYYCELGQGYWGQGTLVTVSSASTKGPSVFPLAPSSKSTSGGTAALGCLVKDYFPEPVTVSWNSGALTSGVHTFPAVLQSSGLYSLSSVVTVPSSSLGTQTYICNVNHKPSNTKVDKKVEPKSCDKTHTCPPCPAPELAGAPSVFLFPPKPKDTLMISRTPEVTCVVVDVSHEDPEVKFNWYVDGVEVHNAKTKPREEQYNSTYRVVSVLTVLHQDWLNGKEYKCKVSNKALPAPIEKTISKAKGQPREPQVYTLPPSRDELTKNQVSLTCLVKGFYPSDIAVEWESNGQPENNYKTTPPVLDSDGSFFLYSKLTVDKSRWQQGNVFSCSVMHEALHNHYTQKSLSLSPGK
light: DIVMTQSPLSLPVTLGQPASISCRSSKSLLYKDGKTYLNWFQQRPGQSPQLLIYLMSTRASGVPDRFSGGGSGTDFTLKISRVEAEDVGVYYCQQLVEYPLTFGQGTKLEIKRTVAAPSVFIFPPSDEQLKSGTASVVCLLNNFYPREAKVQWKVDNALQSGNSQESVTEQDSKDSTYSLSSTLTLSKADYEKHKVYACEVTHQGLSSPVTKSFNRGEC
notes: Tested as CHO-K1 supernatant
koff [1]: 0.00931 s⁻¹
EC50 (read off the curve) [2]: ~0.06 µg/mL

B2: H14L13 (antibody, human IgG1, kappa, V domains shown)
VH: QVQLVQSGAEVVKPGASVKLSCKASGYTFTSYWMHWVKQAPGQGLEWIGNINPSNGGTNYNEKFKSRATLTRDTSTSTAYMELSSLRSEDTAVYYCELGQGYWGQGTLVTVSS
VL: DIVMTQSPLSLPVTLGQPASISCRSSKSLLYKDGKTYLNWFQQRPGQSPQLLIYLMSTRASGVPDRFSGGGSGTDFTLKISRVEAEDVGVYYCQQLVEYPLTFGQGTKLEIKR
notes: Tested as CHO-K1 supernatant
koff [1]: 0.0138 s⁻¹

B3: H16L13 (antibody, human IgG1, kappa)
heavy: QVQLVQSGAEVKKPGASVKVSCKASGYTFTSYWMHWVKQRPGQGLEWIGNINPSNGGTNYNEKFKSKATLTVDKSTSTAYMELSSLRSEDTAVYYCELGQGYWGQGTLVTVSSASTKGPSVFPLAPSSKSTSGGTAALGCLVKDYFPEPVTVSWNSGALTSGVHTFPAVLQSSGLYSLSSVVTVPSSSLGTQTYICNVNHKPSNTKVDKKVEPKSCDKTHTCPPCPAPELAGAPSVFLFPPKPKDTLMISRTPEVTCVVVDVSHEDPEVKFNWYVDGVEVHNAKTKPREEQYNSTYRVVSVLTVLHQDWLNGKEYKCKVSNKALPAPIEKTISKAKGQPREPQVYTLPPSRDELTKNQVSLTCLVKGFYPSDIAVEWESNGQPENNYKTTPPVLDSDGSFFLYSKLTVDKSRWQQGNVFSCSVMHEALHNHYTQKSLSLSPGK
light: B1 light
notes: Tested as CHO-K1 supernatant
koff [1]: 0.00907 s⁻¹
EC50 (read off the curve) [2]: ~0.08 µg/mL

B4: H700L11 (antibody, human IgG1, kappa, V domains shown)
VH: B2 VH with V12K, L20V, K38R, R72V, T74K
VL: B2 VL with M4I
Kd [3]: 19.4 nM
koff [3]: 0.0233 s⁻¹
kon [3]: 1.19e+06 M⁻¹ s⁻¹

B5: H6L16 (antibody, human IgG1, kappa)
heavy: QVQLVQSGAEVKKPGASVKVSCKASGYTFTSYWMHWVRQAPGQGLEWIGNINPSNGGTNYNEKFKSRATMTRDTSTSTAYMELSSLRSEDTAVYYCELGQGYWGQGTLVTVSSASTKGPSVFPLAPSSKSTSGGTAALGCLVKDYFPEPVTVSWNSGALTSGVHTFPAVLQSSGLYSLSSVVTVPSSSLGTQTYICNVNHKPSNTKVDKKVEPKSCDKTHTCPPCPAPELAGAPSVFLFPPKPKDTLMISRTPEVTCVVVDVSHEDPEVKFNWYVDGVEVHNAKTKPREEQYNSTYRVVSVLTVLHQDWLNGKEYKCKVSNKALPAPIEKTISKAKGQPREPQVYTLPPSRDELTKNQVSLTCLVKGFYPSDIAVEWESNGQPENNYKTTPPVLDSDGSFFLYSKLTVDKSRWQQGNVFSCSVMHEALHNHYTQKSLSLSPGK
light: B1 light with L11N, A19V, Q42L
notes: Tested as CHO-K1 supernatant
koff [1]: 0.0114 s⁻¹

B6: H6L17 (antibody, human IgG1, kappa, V domains shown)
VH: B2 VH with V12K, L20V, K38R, L70M
VL: B2 VL with S7D, P64S, G70S
notes: Tested as CHO-K1 supernatant
koff [1]: 0.0158 s⁻¹

B7: H18L13 (antibody, human IgG1, kappa, V domains shown)
VH: B2 VH with A40R, R67K, R72V, T74K, T76S, T91S
VL: B2 VL
notes: Tested as CHO-K1 supernatant
koff [1]: 0.00907 s⁻¹

B8: HcL11 (antibody, human IgG1, kappa)
heavy: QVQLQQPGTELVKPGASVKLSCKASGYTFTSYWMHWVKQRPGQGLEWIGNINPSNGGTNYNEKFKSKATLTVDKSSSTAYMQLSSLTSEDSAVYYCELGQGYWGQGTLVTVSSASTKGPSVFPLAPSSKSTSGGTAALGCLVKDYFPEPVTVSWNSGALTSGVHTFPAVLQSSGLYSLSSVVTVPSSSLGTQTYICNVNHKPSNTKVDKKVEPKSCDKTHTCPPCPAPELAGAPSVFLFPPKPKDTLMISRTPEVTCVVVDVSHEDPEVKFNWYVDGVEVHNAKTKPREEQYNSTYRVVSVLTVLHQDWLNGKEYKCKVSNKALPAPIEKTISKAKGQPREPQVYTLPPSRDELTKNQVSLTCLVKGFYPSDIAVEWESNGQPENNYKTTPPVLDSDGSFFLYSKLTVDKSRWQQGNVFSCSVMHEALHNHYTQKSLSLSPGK
light: B1 light with M4I
notes: Chimeric heavy chain Hc paired with humanised light chain L11; The pairing is read from the name
Kd [3]: 3.55 nM
koff [3]: 0.0134 s⁻¹
kon [3]: 3.78e+06 M⁻¹ s⁻¹

B9: H14L18 (antibody, human IgG1, kappa, V domains shown)
VH: B2 VH
VL: B2 VL with S7D, L11N, A19V, Q42L, P64S, G70S
koff [1]: 0.00835 s⁻¹
Kd [4]: 3.6 nM
koff [4]: 0.00869 s⁻¹
kon [4]: 2.41e+06 M⁻¹ s⁻¹

B10: H17L16 (antibody, human IgG1, kappa)
heavy: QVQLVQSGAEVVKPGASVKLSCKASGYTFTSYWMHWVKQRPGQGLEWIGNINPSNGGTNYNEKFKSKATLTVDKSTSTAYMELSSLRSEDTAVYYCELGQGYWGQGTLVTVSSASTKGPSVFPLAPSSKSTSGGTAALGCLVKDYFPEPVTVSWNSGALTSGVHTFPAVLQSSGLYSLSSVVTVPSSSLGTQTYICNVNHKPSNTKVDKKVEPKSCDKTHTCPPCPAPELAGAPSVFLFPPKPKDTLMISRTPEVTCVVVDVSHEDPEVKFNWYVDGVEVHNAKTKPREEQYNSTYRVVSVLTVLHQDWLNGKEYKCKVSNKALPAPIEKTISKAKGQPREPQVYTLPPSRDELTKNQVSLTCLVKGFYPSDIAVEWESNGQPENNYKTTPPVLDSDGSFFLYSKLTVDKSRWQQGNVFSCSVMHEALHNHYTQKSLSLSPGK
light: B1 light with L11N, A19V, Q42L
notes: Humanised 2A10
Kd [5]: 1.82 nM
koff [5]: 0.0061 s⁻¹
kon [5]: 3.38e+06 M⁻¹ s⁻¹

B11: H6L14 (antibody, human IgG1, kappa)
heavy: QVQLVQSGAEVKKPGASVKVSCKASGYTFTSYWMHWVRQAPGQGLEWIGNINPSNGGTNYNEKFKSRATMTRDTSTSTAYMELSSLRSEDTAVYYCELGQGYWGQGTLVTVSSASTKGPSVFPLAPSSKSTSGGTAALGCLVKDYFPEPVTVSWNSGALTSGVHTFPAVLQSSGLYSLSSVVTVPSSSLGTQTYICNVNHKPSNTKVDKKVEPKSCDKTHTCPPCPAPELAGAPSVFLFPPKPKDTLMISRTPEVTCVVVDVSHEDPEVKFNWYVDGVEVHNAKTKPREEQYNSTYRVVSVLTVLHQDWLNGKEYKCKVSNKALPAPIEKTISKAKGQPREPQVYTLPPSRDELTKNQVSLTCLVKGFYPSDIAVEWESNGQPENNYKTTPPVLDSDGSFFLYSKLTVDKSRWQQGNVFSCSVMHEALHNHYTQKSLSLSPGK
light: B1 light with Q42L
notes: Tested as CHO-K1 supernatant
koff [1]: 0.0457 s⁻¹

B12: H15L16 (antibody, human IgG1, kappa, V domains shown)
VH: B2 VH with A40R, R67K, R72V, T76S, T91S
VL: B2 VL with L11N, A19V, Q42L
notes: Tested as CHO-K1 supernatant
koff [1]: 0.00604 s⁻¹

B13: H6L15 (antibody, human IgG1, kappa, V domains shown)
VH: B2 VH with V12K, L20V, K38R, L70M
VL: B2 VL with Q42L, P64S
notes: Tested as CHO-K1 supernatant
koff [1]: 0.0211 s⁻¹

B14: H16L17 (antibody, V domains shown)
VH: B2 VH with V12K, L20V, A40R, R67K, R72V, T74K
VL: B2 VL with S7D, P64S, G70S
notes: copies: 2 + 2
EC50 (read off the curve) [6]: ~0.1 µg/mL

B15: HcL13 (antibody, human IgG1, kappa)
heavy: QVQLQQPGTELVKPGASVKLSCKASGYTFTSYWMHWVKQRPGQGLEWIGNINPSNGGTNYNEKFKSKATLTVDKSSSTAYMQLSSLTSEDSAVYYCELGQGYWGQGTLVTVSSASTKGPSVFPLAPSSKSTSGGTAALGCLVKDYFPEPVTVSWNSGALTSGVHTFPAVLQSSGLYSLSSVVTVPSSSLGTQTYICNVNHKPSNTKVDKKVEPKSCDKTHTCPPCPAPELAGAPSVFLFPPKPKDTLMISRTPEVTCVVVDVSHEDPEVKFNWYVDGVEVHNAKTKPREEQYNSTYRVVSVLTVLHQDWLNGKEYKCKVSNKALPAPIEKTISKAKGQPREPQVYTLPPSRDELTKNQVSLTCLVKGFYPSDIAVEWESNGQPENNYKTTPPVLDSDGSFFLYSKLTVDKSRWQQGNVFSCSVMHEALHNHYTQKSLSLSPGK
light: B1 light
notes: Chimeric heavy chain Hc paired with humanised light chain L13; The pairing is read from the name
Kd [3]: 1.98 nM
koff [3]: 0.00938 s⁻¹
kon [3]: 4.8e+06 M⁻¹ s⁻¹

B16: H17L18 (antibody)
heavy: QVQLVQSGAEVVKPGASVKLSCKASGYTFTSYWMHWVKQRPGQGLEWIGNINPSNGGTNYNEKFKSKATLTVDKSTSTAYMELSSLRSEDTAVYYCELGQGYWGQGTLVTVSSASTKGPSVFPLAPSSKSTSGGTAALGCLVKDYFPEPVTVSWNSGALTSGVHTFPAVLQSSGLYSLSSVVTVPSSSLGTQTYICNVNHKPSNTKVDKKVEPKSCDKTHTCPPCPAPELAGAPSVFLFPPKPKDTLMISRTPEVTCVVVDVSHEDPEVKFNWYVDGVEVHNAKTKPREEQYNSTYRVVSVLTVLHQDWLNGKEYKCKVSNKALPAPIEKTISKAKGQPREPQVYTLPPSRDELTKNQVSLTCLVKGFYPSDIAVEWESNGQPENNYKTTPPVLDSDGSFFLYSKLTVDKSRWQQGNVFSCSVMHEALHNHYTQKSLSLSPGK
light: B1 light with S7D, L11N, A19V, Q42L, P64S, G70S
notes: copies: 2 + 2
EC50 (read off the curve) [6]: ~0.1 µg/mL

B17: H6L6 (antibody, human IgG1, kappa, V domains shown)
VH: B2 VH with V12K, L20V, K38R, L70M
VL: B2 VL with L15P, Q17E, Q42L, G70S, Q105G, L109V
Kd [3]: 21.4 nM
koff [3]: 0.0254 s⁻¹
kon [3]: 1.2e+06 M⁻¹ s⁻¹

B18: H10L13 (antibody, V domains shown)
VH: B2 VH with V12K, R72V, T74K
VL: DIVMTQSPLSLPVTLGQPASISCRSSKSLLYKDGKTYLNWFQQRPGQSPQLLIYLMSTRASGVPDRFSGGGSGTDFTLKISRVEAEDVGVYYCQQLVEYPLTFGQGTKLEIK
Kd [3]: 12.9 nM
koff [3]: 0.0212 s⁻¹
kon [3]: 1.64e+06 M⁻¹ s⁻¹

B19: H5L6 (antibody, human IgG1, kappa, V domains shown)
VH: B2 VH with V12K, L20V, K38R, I48M, A68V, L70M
VL: B2 VL with L15P, Q17E, Q42L, G70S, Q105G, L109V
Kd [3]: 30.3 nM
koff [3]: 0.047 s⁻¹
kon [3]: 1.5e+06 M⁻¹ s⁻¹
